Measurements from patent US20220372155A1 (LYVGEN BIOPHARMA, published 2022).

What follows are binders tested against T1, human CD40 expressed on CHO cells (human, UniProt P25942 21-277) (assay: FACS, CHO cells).
T1 construct: whole, on cells; also used for the reporter cells over-expressing human CD40; also called cellular CD40; CHO-CD40 cells
T1 sequence (P25942 21-277): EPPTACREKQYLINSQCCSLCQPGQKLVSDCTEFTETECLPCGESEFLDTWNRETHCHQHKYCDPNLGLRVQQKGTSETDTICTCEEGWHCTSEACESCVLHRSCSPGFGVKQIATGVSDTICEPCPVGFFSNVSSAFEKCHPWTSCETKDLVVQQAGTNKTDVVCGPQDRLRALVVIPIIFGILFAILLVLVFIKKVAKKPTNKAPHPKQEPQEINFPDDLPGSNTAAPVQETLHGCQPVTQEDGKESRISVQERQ

binding result	Binder
binds	TM377 (antibody, human IgG4 S228P, kappa, V domains shown, chimeric: LYV377 VH/human IgG4, LYV377 VL/kappa; also called chimeric parent TM377) VH: EVQILETGGGLVKPGGSLRLSCATSGFNFNDSFMNWVRQAPGKGLEWVAQIRNKNYNYATYYTESLEGRVTISRDDSKSRVYLQVSSLRAEDSAVYYCTSYYYDGFADYFDYWGQGVMVTVSS VL: DIKMTQSPSFLSASVGDSVTFTCKASQNIYIYLNWYQQKFGEAPKLLIYNTNNLQTGIPSRFSGSESGTVFTLTISSLQPEDVATYFCLQHSSRRTFGGGTKLELKR
binds	Ly467 (bispecific antibody, human IgG1, kappa, Ly368 HC-TM559 scFv VH-VL + Ly368 LC) heavy: QVQLKESGPGLVAPSQSLSITCTVSGFSLTDYGVRWIRQPPGKGLEWLGVIWGGGSTYYNSALKSRLSISKDNSKSQVFLKMNSLQTDDTAMYYCAKEKRRGYYYAMDYWGQGTSVTVSSASTKGPSVFPLAPSSKSTSGGTAALGCLVKDYFPEPVTVSWNSGALTSGVHTFPAVLQSSGLYSLSSVVTVPSSSLGTQTYICNVNHKPSNTKVDKKVEPKSCDKTHTCPPCPAPELLGPSVFLFPPKPKDTLMISRTPEVTCVVVDVSHEDPEVKFNWYVDGVEVHNAKTKPREEQYNSTYRVVSVLTVLHQDWLNGKEYKCKVSNKALPAPIEKTISKAKGQPREPQVYTLPPSREEMTKNQVSLTCLVKGFYPSDIAVEWESNGQPENNYKTTPPVLDSDGSFFLYSKLTVDKSRWQQGNVFSCSVMHEALHNHYTQKSLSLSPGGGGGSGGGGSGGGGSGGGGSEVQLVESGGGLVQPGGSLRLSCAASGFTFTNYGLHWVRQAPGKGLEWVSSISPSGGVTYYRDSVKGRFTISRDNSKNTLYLQMNSLRAEDTAVYYCAKPFLGWGGANWIAHWGQGTLVTVSSGGGGSGGGGSGGGGSGGGGSDIQMTQSPSSLSASVGDRVTITCLASEDISNDLAWYQQKPGKAPKLLIYFVDRLLDGVPSRFSGSGSGTDFTLTISSLQPEDFATYYCQQSYKYPPTFGQGTKLEIK light: ENVLTQSPAIMSASPGEKVTMTCRASSSVSSSYLHWYQQKSGASPKLWIYSTSNLASGVPARFSGSGSGTSYSLTISSVEAEDAATYYCQQYSGYPLTFGGGTKLEIKRTVAAPSVFIFPPSDEQLKSGTASVVCLLNNFYPREAKVQWKVDNALQSGNSQESVTEQDSKDSTYSLSSTLTLSKADYEKHKVYACEVTHQGLSSPVTKSFNRGEC
binds	Ly470 (bispecific antibody, human IgG1, kappa, Ly368 HC-Ly253 scFv VL-VH + Ly368 LC) heavy: not shown light: ENVLTQSPAIMSASPGEKVTMTCRASSSVSSSYLHWYQQKSGASPKLWIYSTSNLASGVPARFSGSGSGTSYSLTISSVEAEDAATYYCQQYSGYPLTFGGGTKLEIKRTVAAPSVFIFPPSDEQLKSGTASVVCLLNNFYPREAKVQWKVDNALQSGNSQESVTEQDSKDSTYSLSSTLTLSKADYEKHKVYACEVTHQGLSSPVTKSFNRGEC
binds	Ly471 (bispecific antibody, human IgG1, kappa, Ly368 HC-Ly253 scFv VH-VL + Ly368 LC) heavy: not shown light: ENVLTQSPAIMSASPGEKVTMTCRASSSVSSSYLHWYQQKSGASPKLWIYSTSNLASGVPARFSGSGSGTSYSLTISSVEAEDAATYYCQQYSGYPLTFGGGTKLEIKRTVAAPSVFIFPPSDEQLKSGTASVVCLLNNFYPREAKVQWKVDNALQSGNSQESVTEQDSKDSTYSLSSTLTLSKADYEKHKVYACEVTHQGLSSPVTKSFNRGEC
binds	Ly801 (bispecific antibody, human IgG1, kappa, Ly383 HC (IgG1 mutated Fc) + Ly383 LC-TM740 scFv VL-VH) heavy: EVQLQQSGPELVKPGASVKMSCKASGYTFTSYVMHWVKQKPGQGLEWIGYINPYNDGTECTDKFKGKATLTSDKSSSTAYMELSSLTSEDSAVYYCASIYYGYDGTYFGVWGAGTSVTVSSASTKGPSVFPLAPSSKSTSGGTAALGCLVKDYFPEPVTVSWNSGALTSGVHTFPAVLQSSGLYSLSSVVTVPSSSLGTQTYICNVNHKPSNTKVDKKVEPKSCDKTHTCPPCPAPELLGPSVFLFPPKPKDTLMISRTPEVTCVVVDVSHEDPEVKFNWYVDGVEVHNAKTKPREEQYNSTYRVVSVLTVLHQDWLNGKEYKCKVSNKALPAPIEKTISKAKGQPREPQVYTLPPSREEMTKNQVSLTCLVKGFYPSDIAVEWESNGQPENNYKTTPPVLDSDGSFFLYSKLTVDKSRWQQGNVFSCSVMHEALHNHYTQKSLSLSPG light: QIVLSQSPAILSTSPGEKVTMTCRASSSVSYMHWYQQKPGSSPKPWIYATSNLASGVPARFSGSRSGTSYSLTISRVEAEDAATYYCQQWSSNTLTFGGGTKLELKRTVAAPSVFIFPPSDEQLKSGTASVVCLLNNFYPREAKVQWKVDNALQSGNSQESVTEQDSKDSTYSLSSTLTLSKADYEKHKVYACEVTHQGLSSPVTKSFNRGECGGGGSGGGGSGGGGSGGGGSDIQMTQSPSSLSASVGDRVTITCKASQNIYIYLNWYQQKPGKAPKLLIYNTNNLQTGVPSRFSGSGSGTDFTLTISSLQPEDFATYYCLQHSSRRTFGGGTKVEIKGGGGSGGGGSGGGGSGGGGSQVQLVESGGGLVQPGGSLKLSCATSGFNFNDYFMNWVRQASGKGLEWVGQIRNKNYNYATYYTESLEGRVTISRDDSKNTAYLQMNSLKTEDTAVYYCTSYYYDGFADYFDYWGQGTTVTVSS
binds	Ly468 (bispecific antibody, human IgG1, kappa, Ly368 HC + Ly368 LC-TM559 scFv VL-VH) heavy: QVQLKESGPGLVAPSQSLSITCTVSGFSLTDYGVRWIRQPPGKGLEWLGVIWGGGSTYYNSALKSRLSISKDNSKSQVFLKMNSLQTDDTAMYYCAKEKRRGYYYAMDYWGQGTSVTVSSASTKGPSVFPLAPSSKSTSGGTAALGCLVKDYFPEPVTVSWNSGALTSGVHTFPAVLQSSGLYSLSSVVTVPSSSLGTQTYICNVNHKPSNTKVDKKVEPKSCDKTHTCPPCPAPELLGPSVFLFPPKPKDTLMISRTPEVTCVVVDVSHEDPEVKFNWYVDGVEVHNAKTKPREEQYNSTYRVVSVLTVLHQDWLNGKEYKCKVSNKALPAPIEKTISKAKGQPREPQVYTLPPSREEMTKNQVSLTCLVKGFYPSDIAVEWESNGQPENNYKTTPPVLDSDGSFFLYSKLTVDKSRWQQGNVFSCSVMHEALHNHYTQKSLSLSPG light: ENVLTQSPAIMSASPGEKVTMTCRASSSVSSSYLHWYQQKSGASPKLWIYSTSNLASGVPARFSGSGSGTSYSLTISSVEAEDAATYYCQQYSGYPLTFGGGTKLEIKRTVAAPSVFIFPPSDEQLKSGTASVVCLLNNFYPREAKVQWKVDNALQSGNSQESVTEQDSKDSTYSLSSTLTLSKADYEKHKVYACEVTHQGLSSPVTKSFNRGECGGGGSGGGGSGGGGSGGGGSDIQMTQSPSSLSASVGDRVTITCLASEDISNDLAWYQQKPGKAPKLLIYFVDRLLDGVPSRFSGSGSGTDFTLTISSLQPEDFATYYCQQSYKYPPTFGQGTKLEIKGGGGSGGGGSGGGGSGGGGSEVQLVESGGGLVQPGGSLRLSCAASGFTFTNYGLHWVRQAPGKGLEWVSSISPSGGVTYYRDSVKGRFTISRDNSKNTLYLQMNSLRAEDTAVYYCAKPFLGWGGANWIAHWGQGTLVTVSS
binds	Ly469 (bispecific antibody, human IgG1, kappa, Ly368 HC + Ly368 LC-TM559 scFv VH-VL) heavy: QVQLKESGPGLVAPSQSLSITCTVSGFSLTDYGVRWIRQPPGKGLEWLGVIWGGGSTYYNSALKSRLSISKDNSKSQVFLKMNSLQTDDTAMYYCAKEKRRGYYYAMDYWGQGTSVTVSSASTKGPSVFPLAPSSKSTSGGTAALGCLVKDYFPEPVTVSWNSGALTSGVHTFPAVLQSSGLYSLSSVVTVPSSSLGTQTYICNVNHKPSNTKVDKKVEPKSCDKTHTCPPCPAPELLGPSVFLFPPKPKDTLMISRTPEVTCVVVDVSHEDPEVKFNWYVDGVEVHNAKTKPREEQYNSTYRVVSVLTVLHQDWLNGKEYKCKVSNKALPAPIEKTISKAKGQPREPQVYTLPPSREEMTKNQVSLTCLVKGFYPSDIAVEWESNGQPENNYKTTPPVLDSDGSFFLYSKLTVDKSRWQQGNVFSCSVMHEALHNHYTQKSLSLSPG light: ENVLTQSPAIMSASPGEKVTMTCRASSSVSSSYLHWYQQKSGASPKLWIYSTSNLASGVPARFSGSGSGTSYSLTISSVEAEDAATYYCQQYSGYPLTFGGGTKLEIKRTVAAPSVFIFPPSDEQLKSGTASVVCLLNNFYPREAKVQWKVDNALQSGNSQESVTEQDSKDSTYSLSSTLTLSKADYEKHKVYACEVTHQGLSSPVTKSFNRGECGGGGSGGGGSGGGGSGGGGSEVQLVESGGGLVQPGGSLRLSCAASGFTFTNYGLHWVRQAPGKGLEWVSSISPSGGVTYYRDSVKGRFTISRDNSKNTLYLQMNSLRAEDTAVYYCAKPFLGWGGANWIAHWGQGTLVTVSSGGGGSGGGGSGGGGSGGGGSDIQMTQSPSSLSASVGDRVTITCLASEDISNDLAWYQQKPGKAPKLLIYFVDRLLDGVPSRFSGSGSGTDFTLTISSLQPEDFATYYCQQSYKYPPTFGQGTKLEIK
binds	Ly473 (bispecific antibody, human IgG1, kappa, Ly368 HC + Ly368 LC-Ly253 scFv VH-VL) heavy: QVQLKESGPGLVAPSQSLSITCTVSGFSLTDYGVRWIRQPPGKGLEWLGVIWGGGSTYYNSALKSRLSISKDNSKSQVFLKMNSLQTDDTAMYYCAKEKRRGYYYAMDYWGQGTSVTVSSASTKGPSVFPLAPSSKSTSGGTAALGCLVKDYFPEPVTVSWNSGALTSGVHTFPAVLQSSGLYSLSSVVTVPSSSLGTQTYICNVNHKPSNTKVDKKVEPKSCDKTHTCPPCPAPELLGPSVFLFPPKPKDTLMISRTPEVTCVVVDVSHEDPEVKFNWYVDGVEVHNAKTKPREEQYNSTYRVVSVLTVLHQDWLNGKEYKCKVSNKALPAPIEKTISKAKGQPREPQVYTLPPSREEMTKNQVSLTCLVKGFYPSDIAVEWESNGQPENNYKTTPPVLDSDGSFFLYSKLTVDKSRWQQGNVFSCSVMHEALHNHYTQKSLSLSPG light: not shown
binds	Ly472 (bispecific antibody, human IgG1, kappa, Ly368 HC + Ly368 LC-Ly253 scFv VL-VH) heavy: QVQLKESGPGLVAPSQSLSITCTVSGFSLTDYGVRWIRQPPGKGLEWLGVIWGGGSTYYNSALKSRLSISKDNSKSQVFLKMNSLQTDDTAMYYCAKEKRRGYYYAMDYWGQGTSVTVSSASTKGPSVFPLAPSSKSTSGGTAALGCLVKDYFPEPVTVSWNSGALTSGVHTFPAVLQSSGLYSLSSVVTVPSSSLGTQTYICNVNHKPSNTKVDKKVEPKSCDKTHTCPPCPAPELLGPSVFLFPPKPKDTLMISRTPEVTCVVVDVSHEDPEVKFNWYVDGVEVHNAKTKPREEQYNSTYRVVSVLTVLHQDWLNGKEYKCKVSNKALPAPIEKTISKAKGQPREPQVYTLPPSREEMTKNQVSLTCLVKGFYPSDIAVEWESNGQPENNYKTTPPVLDSDGSFFLYSKLTVDKSRWQQGNVFSCSVMHEALHNHYTQKSLSLSPG light: not shown
